Data from article PMC12368724, “Impact of Changes in Buffer Ionic Concentration and Mutations on a GH1 β‑Glucosidase Homodimer” (ACS Omega, 2025).
Numbering of substitutions follows the chain as printed. Names may count otherwise. Each block holds one binder with its values, some of them ahead of it.

What was measured:
[1] = molecular target: T1, GH1 β-glucosidase from Spodoptera frugiperda (Sfβgly), wild-type (Spodoptera frugiperda); test: SEC-MALS; 90 μM Sfβgly in 100 mM sodium phosphate buffer pH 6 (P100) at 5 °C; two Superdex 200 columns in tandem; conditions: both partners purified
[2] = molecular target: T1, GH1 β-glucosidase from Spodoptera …; test: SEC; dimer to monomers; 50 mM phosphate buffer pH 6 (P50), 5 °C; KD is the slope of [M]^2 versus [D] from peak areas; conditions: both partners purified
[3] = molecular target: T1, GH1 β-glucosidase from Spodoptera …; test: SEC; dimer to monomers; 5 mM phosphate buffer pH 6 (P5), 5 °C; KD is the slope of [M]^2 versus [D] from peak areas; conditions: both partners purified
[4] = molecular target: T1, GH1 β-glucosidase from Spodoptera …; test: SEC; dimer to monomers; 100 mM phosphate buffer pH 6 (P100), 5 °C; two Superdex 200 HR10/300 GL columns in tandem; KD is the slope of [M]^2 versus [D] from peak areas at several protein concentrations; conditions: both partners purified
[5] = molecular target: T1, GH1 β-glucosidase from Spodoptera …; test: as above; conditions: both partners purified; remark: listed apart in the source
[6] = molecular target: T1, GH1 β-glucosidase from Spodoptera …; test: SEC; dimer to monomers; 75 mM phosphate buffer pH 6 (P75), 5 °C; KD is the slope of [M]^2 versus [D] from peak areas; conditions: both partners purified
[7] = molecular target: T1, GH1 β-glucosidase from Spodoptera …; test: SEC; dimer to monomers; 25 mM phosphate buffer pH 6 (P25), 5 °C; KD is the slope of [M]^2 versus [D] from peak areas; conditions: both partners purified
[8] = molecular target: the molecule itself; test: SEC; dimer to monomers; 100 mM phosphate buffer pH 6 (P100), 5 °C; two Superdex 200 HR10/300 GL columns in tandem; KD is the slope of [M]^2 versus [D] from peak areas at several protein concentrations

stoichiometry N [1]: 2 | Kd [2]: 9.5 µM | Kd [3]: 135 µM | Kd [4]: 8 µM | Kd [5]: 7 µM | Kd [6]: 9.9 µM | Kd [7]: 78 µM
B1: GH1 β-glucosidase from Spodoptera frugiperda (Sfβgly), wild-type (enzyme)
chain: QQRRFPDDFLFGTATASYQIEGAWDEDGKGENIWDYMVHNTPEVIRDLSNGDIAADSYHNYKRDVEMMRELGLDAYRFSLSWARILPTGMANEVNPAGIAFYNNYIDEMLKYNITPLITLYHWDLPQKLQELGGFANPLISDWFEDYARVVFENFGDRVKMFITFNEPREICFEGYGSATKAPILNATAMGAYLCAKNLVTAHAKAYYLYDREFRPVQGGQCGITISVNWFGPATPTPEDEMAAELRRQGEWGIYAHPIFSAEGGFPKELSDKIAEKSAQQGYPWSRLPEFTEEEKAFVRGTSDFFGVNHYTAFLVSATERKGPYPVPSLLDDVDTGSWADDSWLKSASAWLTLAPNSIHTALTHLNNLYNKPVFYITENGWSTDESRENSLIDDDRIQYYRASMESLLNCLDDGINLKGYMAWSLMDNFEWMEGYIERFGLYEVDFSDPARTRTPRKAAFVYKHIIKHRVVDYEYEPETMVMTIDEGH
modifications: Monomer given, self-associates to a C2 homodimer. Limits by convention from the 5CG0 entity; paper numbering = entity + 20 (precursor numbering) / Monomer given, self-associates to a C2 homodimer. …

B2: Sfβgly mutant N157S (enzyme)
chain: B1 chain with N137S
Kd [8]: 28 µM

B3: Sfβgly mutant D166S (enzyme)
chain: B1 chain with D146S
Kd [8]: 100 µM

B4: Sfβgly mutant M210A (enzyme)
chain: B1 chain with M190A
Kd [8]: 3600 µM

B5: Sfβgly mutant L214A (enzyme)
chain: B1 chain with L194A
Kd [8]: 5400 µM

B6: Sfβgly mutant N112S (enzyme)
chain: B1 chain with N92S
Kd [8]: 1200 µM
